These results are taken from IntAct's records for PubMed 17909014.

One experiment has as its target limd1_mouse Limd1 (UniProt Q9QXD8).
The next experiment deals with ajuba_mouse Ajuba (UniProt Q91XC0).

Chain of limd1_mouse Limd1 (Q9QXD8 whole entry): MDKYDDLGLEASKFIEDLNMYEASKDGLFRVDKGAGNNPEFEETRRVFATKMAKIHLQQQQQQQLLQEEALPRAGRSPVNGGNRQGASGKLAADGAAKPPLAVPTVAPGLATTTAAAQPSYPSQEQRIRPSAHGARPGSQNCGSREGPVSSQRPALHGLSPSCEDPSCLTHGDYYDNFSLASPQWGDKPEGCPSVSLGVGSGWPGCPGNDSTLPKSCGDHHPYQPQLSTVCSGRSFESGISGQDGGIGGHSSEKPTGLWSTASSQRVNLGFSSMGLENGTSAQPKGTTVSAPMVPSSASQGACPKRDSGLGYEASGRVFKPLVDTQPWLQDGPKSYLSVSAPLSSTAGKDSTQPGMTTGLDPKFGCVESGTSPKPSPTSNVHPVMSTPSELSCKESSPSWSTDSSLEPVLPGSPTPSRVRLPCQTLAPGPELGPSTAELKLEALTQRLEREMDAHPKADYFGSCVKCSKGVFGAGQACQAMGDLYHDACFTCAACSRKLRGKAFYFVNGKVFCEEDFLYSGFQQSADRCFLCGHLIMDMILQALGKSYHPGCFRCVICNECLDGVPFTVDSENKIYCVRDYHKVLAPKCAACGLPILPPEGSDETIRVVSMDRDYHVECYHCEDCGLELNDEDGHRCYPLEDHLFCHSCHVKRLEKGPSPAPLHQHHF

For “Zinc finger protein Gfi-1 (Homo sapiens), Q99684 K10A;K11A”, the “effect of a mutation on the interaction” value in the experiment with limd1_mouse Limd1 and with ajuba_mouse Ajuba was “disrupting interaction” each time.

In the case of “Zinc finger protein Gfi-1 (Homo sapiens), Q99684 F5A”, the “effect of a mutation on the interaction” value with limd1_mouse Limd1 and in the experiment with ajuba_mouse Ajuba was “disrupting interaction” throughout.

Consider “Zinc finger protein Gfi-1 (Homo sapiens), Q99684 F5A;L6A;V7A”, for which the “effect of a mutation on the interaction” value with limd1_mouse Limd1 and with ajuba_mouse Ajuba was “disrupting interaction” in each case.
